The record followed here is patent US11639389B2, “Binding molecules with modified J-chain” (IGM Biosciences, Inc., dated 2023).

In this assay the target is DR5 (TRAILR2) (Homo sapiens). Nature of the assay: cell-based or functional assay.

B1: anti-DR5 IgM+wt J-chain (antibody)
heavy: not shown
light: SSELTQDPAVSVALGQTVRITCQGDSLRSYYASWYQQKPGQAPVLVIYGKNNRPSGIPDRFSGSSSGNTASLTITGAQAEDEADYYCNSRDSSGNHVVFGGGTKLTVLGQPKAAPSVTLFPPSSEELQANKATLVCLISDFYPGAVTVAWKADSSPVKAGVETTTPSKQSNNKYAASSYLSLTPEQWKSHRSYSCQVTHEGSTVEKTVAPTECS
chain: not shown
In the case of B1, the “cell viability of COLO205 cells after 24 hours (Cell-Titer Glo)” value was > 1000 fold, compared to the corresponding IgG.

B2: anti-DR5 IgM (without J-chain) (antibody, V domains shown)
VH: EVQLVQSGGGVERPGGSLRLSCAASGFTFDDYGMSWVRQAPGKGLEWVSGINWNGGSTGYADSVKGRVTISRDNAKNSLYLQMNSLRAEDTAVYYCAKILGAGRGWYFDLWGKGTTVTVSS
VL: SSELTQDPAVSVALGQTVRITCQGDSLRSYYASWYQQKPGQAPVLVIYGKNNRPSGIPDRFSGSSSGNTASLTITGAQAEDEADYYCNSRDSSGNHVVFGGGTKLTVLG
Take B2: the “cell viability of COLO205 cells after 24 hours (Cell-Titer Glo)” value is > 1000 fold, compared to the corresponding IgG.
